Usually Kd stands for a measure of binding affinity in units of concentration. Low readings indicate tighter binding, high ones weaker binding.

One assay deals with GDNF, NRTN, and ARTN. Kind of assay: SPR.
The target of assay [1] is HS-carrying extracellular domain of syndecan-3 purified from rat brain (rat, UniProt P33671 45-387, heparan sulfate (HS) chains). Nature of the assay: SPR. Background: Surface plasmon resonance follows binding to a sensor surface in real time, without labels.
HS-carrying extracellular domain of syndecan-3 purified from rat brain (rat, UniProt P33671 45-387, heparan sulfate (HS) chains), sequence (P33671 45-387): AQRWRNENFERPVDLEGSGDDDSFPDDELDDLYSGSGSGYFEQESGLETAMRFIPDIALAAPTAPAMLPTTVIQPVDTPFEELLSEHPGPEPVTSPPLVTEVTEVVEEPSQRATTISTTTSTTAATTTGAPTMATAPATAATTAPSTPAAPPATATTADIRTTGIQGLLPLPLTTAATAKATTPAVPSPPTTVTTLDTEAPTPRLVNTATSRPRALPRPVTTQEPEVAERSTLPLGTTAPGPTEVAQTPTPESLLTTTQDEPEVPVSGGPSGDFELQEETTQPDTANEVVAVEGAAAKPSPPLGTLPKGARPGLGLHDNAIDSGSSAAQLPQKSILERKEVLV

Turning to “HS-carrying extracellular domain of syndecan-3 purified from rat brain (from UniProt P33671 45-387) (domain or fragment)”, the equilibrium dissociation constant (Kd) in the assay with GDNF, NRTN, and ARTN was 10 to 50 nM.

B1: persephin (PSPN) (ligand, UniProt O60542 61-156, looked up)
chain: ALSGPCQLWSLTLSVAELGLGYASEEKVIFRYCAGSCPRGARTQHGLALARLQGQGRAHGGPCCRPTRYTDVAFLDDRHRWQRLPQLSAAACGCGG
In the case of B1, in assay [1], the dissociation constant Kd is above 70 nM.

The values above are taken from article PMC3019558 (The Journal of Cell Biology, 2011).
